The text below walks through data of patent publication CN107793480A (SHANGHAI JIBEI BIOLOGICAL TECH CO LTD, dated 2018).

Substitutions are numbered along the chain they refer to.

In one assay the target is T1, CD19-His (human, UniProt P15391 20-291).
T1 construct: Amine-coupled to AR2G biosensors for BLI; also called CD19-His抗原; not shown: His tag
T1 sequence (looked up): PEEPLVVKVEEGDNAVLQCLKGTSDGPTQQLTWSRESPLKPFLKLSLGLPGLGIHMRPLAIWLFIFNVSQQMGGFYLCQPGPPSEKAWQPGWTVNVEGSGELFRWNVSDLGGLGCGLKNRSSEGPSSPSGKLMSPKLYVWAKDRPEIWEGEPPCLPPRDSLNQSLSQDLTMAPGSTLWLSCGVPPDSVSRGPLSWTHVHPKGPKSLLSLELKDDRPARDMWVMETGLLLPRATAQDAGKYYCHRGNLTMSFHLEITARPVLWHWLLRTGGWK
The assay can be described thus: BLI (ForteBio Octet), CD19-His amine-coupled to AR2G sensor, scFv-hIgG1 in solution. In general terms: BLI is a label-free optical method that tracks binding on a fibre tip over time.

Assay [1] addresses CD19 (antigen of the phage competition ELISA) (human) (UniProt P15391). The assay can be described thus: phage competition ELISA on CD19; competitor 3ug/ml FMC63mIgG2a, anti-mouse Fc detection. (In an ELISA, binding on a coated surface is turned into a signal by an enzyme label.)
The target in assay [2] is T2, CD19 on Raji cells (human, UniProt P15391 20-556).
T2 construct: whole, on cells; also called Raji细胞(CD19+)
T2 sequence (looked up): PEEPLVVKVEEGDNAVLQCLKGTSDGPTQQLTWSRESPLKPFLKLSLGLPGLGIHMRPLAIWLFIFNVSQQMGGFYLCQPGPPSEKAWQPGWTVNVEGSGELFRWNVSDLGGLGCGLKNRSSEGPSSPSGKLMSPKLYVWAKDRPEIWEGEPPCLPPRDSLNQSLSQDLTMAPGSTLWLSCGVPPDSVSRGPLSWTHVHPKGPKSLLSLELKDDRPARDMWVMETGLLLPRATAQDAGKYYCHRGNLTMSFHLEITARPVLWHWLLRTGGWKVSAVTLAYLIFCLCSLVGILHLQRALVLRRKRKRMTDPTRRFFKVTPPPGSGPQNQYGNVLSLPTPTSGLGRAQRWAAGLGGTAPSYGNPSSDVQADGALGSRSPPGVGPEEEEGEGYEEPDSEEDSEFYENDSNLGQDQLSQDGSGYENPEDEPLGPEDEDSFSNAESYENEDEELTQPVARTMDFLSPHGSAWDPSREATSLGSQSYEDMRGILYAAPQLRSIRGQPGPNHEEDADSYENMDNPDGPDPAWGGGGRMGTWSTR
The assay can be described thus: flow cytometry on Raji cells, anti-human IgG Fc-PE, MFI against concentration. In general terms: In flow cytometry, cells or beads pass a laser one at a time.

Assay [3] deals with T2, CD19 on Raji cells. The assay can be described thus: flow cytometry on Raji cells, scFv-hIgG1, all four in one experiment.

Take “NC (negative control in the scFv-hIgG1 BLI table)”: in the assay with CD19-His, the Response came to 0.09.
In turn, “NC (negative control in the phage ELISAs)” showed an Emax(最大抑制率) in assay [1] of 19%.

B1: 4B10-hIgG1 (Fc fusion)
chain: EVKLQESGPGLVAPSQSLSVTCTVSGFSLEDYGVSWIRQPPRKGLEWLGVIWGSETTYYNSALKSRLTIIKDNSKSQVFLKMNSLQTDDTAIYYCAKHYYYGGSYAMDYWGQGTSVTVSSGGGGSGGGGSGGGGSDIQMTQTTSSLSASLGDRVTISCRASQDISKYLNWYQQKPDGTVKLLIYHTSRLHSGVPSRFSGSGSGTDYSLTISNLEQEDIATYFCQQGNTLPYTFGGGTKLEIT
notes: Secreted scFv-hIgG1Fc fusion from 293 cells, protein A purified; Junction between scFv and Fc not described; also called 4B10 scFv-hIgG1Fc融合蛋白; not shown: human IgG1 Fc (hIgG1Fc) from vector pGCIgGH1
For the molecule B1, the midpoint of the response with CD19 on Raji cells [2], the EC50, lay at 0.16 µg/mL. In the assay with CD19-His, the Response is 0.35 and the koff (in general, the rate constant with which the complex falls apart) was found to be 0.000895 s⁻¹.

B2: 8A10-hIgG1 (Fc fusion)
chain: B1 chain with F27V, E30P, L45P, N227K, L229F, Y231L
notes: Secreted scFv-hIgG1Fc fusion from 293 cells, protein A purified; also called 8A10 scFv-hIgG1Fc融合蛋白; not shown: human IgG1 Fc (hIgG1Fc) from vector pGCIgGH1
Regarding B2, the EC50 (as a rule, the concentration at which the effect is half-maximal) with CD19 on Raji cells [2] was found to be 0.13 µg/mL. In the assay with CD19-His, this molecule came in with a Response of 0.418 and a koff of 0.000913 s⁻¹.

B3: C21-hIgG1 (Fc fusion)
chain: B1 chain with N227K, L229F, Y231L
notes: also called 4B10&8A10组合突变; not shown: human IgG1 Fc (hIgG1Fc) from vector pGCIgGH1
For the molecule B3, the 50% effective concentration (EC50) with CD19 on Raji cells [3] came to 0.23 µg/mL; in the assay with CD19 on Raji cells [2] it was 0.09 µg/mL.

B4: 7E11-hIgG1 (Fc fusion)
chain: EIVMTQSPATLSLSPGERATLSCRASQDISKYLNWYQQKPGQAPRLLIYHTSRLHSGIPARFSGSGSGTDYTLTISSLQPEDFAVYFCQQGKTFPLTFGQGTKLEIKGGGGSGGGGSGGGGSQVQLQESGPGLVKPSETLSLTCTVSGFSLEDYGVSWIRQPPGKGLEWIGVIWGSETTYYNSSLKSRVTISKDNSKNQVSLKLSSVTAADTAVYYCAKHYYYGGSYAMDYWGQGTLVTVSS
notes: not shown: human IgG1 Fc (hIgG1Fc) from vector pGCIgGH1
The molecule B4 gave an EC50 with CD19 on Raji cells [3] of 0.36 µg/mL.

B5: C2146-hIgG1 (Fc fusion)
chain: B4 chain with K92N, F94L, L96Y, F149V, E152P
notes: also called C2146 scFv-hIgG1; not shown: human IgG1 Fc (hIgG1Fc) from vector pGCIgGH1
The molecule B5 had an EC50 in the assay with CD19 on Raji cells [3] of 2.63 µg/mL.
